Assay results reported in patent publication US20240400614A1, “CLEAVABLE PEPTIDES AND METHODS OF USE THEREOF” (Bright Peak Therapeutics AG, priority 2023, published 2024).
Square brackets hold non-standard residues; d marks the D form. Ends that are not written are not given here. Tyr(3-NO2) = N[C@@H](Cc1ccc(O)c([N+](=O)[O-])c1)C(=O)O; Nle = CCCC[C@H](N)C(=O)O; 2Abz = Nc1ccccc1C(=O)O

How the values were obtained:
Format in all cases: biochemical
[1] = target: T1, MMP-7 (Homo sapiens, UniProt P09237); test: FRET peptide cleavage efficiency with MMP-7 (standard pH 7.5; also pH 6.5)
T1 construct: purchased SIGMA CC1059
T1 sequence (P09237 95-267): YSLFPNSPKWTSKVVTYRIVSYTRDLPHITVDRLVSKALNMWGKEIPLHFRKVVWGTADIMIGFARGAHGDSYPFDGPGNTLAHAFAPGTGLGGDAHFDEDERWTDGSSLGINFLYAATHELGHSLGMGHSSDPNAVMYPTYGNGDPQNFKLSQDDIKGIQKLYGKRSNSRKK

[2] = target: T2, MMP-9 (Homo sapiens, UniProt P14780); test: FRET peptide cleavage efficiency with MMP-9 (standard pH 7.5; also pH 6.5)
T2 construct: purchased SIGMA PF024

[3] = target: T3, MMP-2 (Homo sapiens, UniProt P08253); test: FRET peptide cleavage efficiency with MMP-2
T3 construct: purchased SIGMA PF023
T3 sequence (P08253 110-660): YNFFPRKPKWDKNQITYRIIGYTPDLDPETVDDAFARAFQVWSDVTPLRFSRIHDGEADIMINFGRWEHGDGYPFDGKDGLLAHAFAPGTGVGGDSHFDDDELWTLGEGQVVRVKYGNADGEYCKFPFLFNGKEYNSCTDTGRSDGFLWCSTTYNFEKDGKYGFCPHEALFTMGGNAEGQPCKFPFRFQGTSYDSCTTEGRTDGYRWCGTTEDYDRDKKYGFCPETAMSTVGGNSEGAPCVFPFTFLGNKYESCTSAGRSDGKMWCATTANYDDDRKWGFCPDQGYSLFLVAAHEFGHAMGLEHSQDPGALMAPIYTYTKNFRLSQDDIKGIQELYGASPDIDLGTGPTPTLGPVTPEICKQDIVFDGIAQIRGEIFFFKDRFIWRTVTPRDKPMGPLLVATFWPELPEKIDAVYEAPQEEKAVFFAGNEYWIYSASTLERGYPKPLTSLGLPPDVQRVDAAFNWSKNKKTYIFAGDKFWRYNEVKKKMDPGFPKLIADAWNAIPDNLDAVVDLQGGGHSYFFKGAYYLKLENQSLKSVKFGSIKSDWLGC

[4] = target: uPA (Homo sapiens, UniProt P00749); test: FRET peptide cleavage efficiency with uPA
[5] = target: T4, matriptase (Homo sapiens, UniProt Q9Y5Y6); test: FRET peptide cleavage efficiency with matriptase
T4 construct: purchased R&D Systems 3946-SEB
T4 sequence (Q9Y5Y6 615-855 limits assumed): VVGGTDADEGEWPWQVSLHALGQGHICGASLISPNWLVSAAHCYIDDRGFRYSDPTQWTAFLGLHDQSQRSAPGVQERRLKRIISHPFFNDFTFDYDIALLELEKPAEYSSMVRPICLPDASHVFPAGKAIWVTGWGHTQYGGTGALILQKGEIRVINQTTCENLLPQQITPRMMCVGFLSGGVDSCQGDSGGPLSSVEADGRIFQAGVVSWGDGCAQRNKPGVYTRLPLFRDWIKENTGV

[6] = t = 15 min, 200 uM linker, 1 ug/ml protease, 37° C., buffer C pH 7.5
[7] = t = 60 min, 200 uM linker, 1 ug/ml protease, 37° C., buffer C pH 7.5
[8] = t = 120 min, 200 uM linker, 1 ug/ml protease, 37° C., buffer C pH 7.5
[9] = 200 uM linker, 1 ug/ml protease, 37° C., buffer A pH 8.5
[10] = 200 uM linker, 1 ug/ml protease, 37° C., buffer B pH 9.0
[11] = t = 15 min, standard conditions (Table 8)
[12] = t = 60 min, standard conditions (Table 8)
[13] = t = 120 min, standard conditions (Table 8)

T2 sequence (P14780 94-707): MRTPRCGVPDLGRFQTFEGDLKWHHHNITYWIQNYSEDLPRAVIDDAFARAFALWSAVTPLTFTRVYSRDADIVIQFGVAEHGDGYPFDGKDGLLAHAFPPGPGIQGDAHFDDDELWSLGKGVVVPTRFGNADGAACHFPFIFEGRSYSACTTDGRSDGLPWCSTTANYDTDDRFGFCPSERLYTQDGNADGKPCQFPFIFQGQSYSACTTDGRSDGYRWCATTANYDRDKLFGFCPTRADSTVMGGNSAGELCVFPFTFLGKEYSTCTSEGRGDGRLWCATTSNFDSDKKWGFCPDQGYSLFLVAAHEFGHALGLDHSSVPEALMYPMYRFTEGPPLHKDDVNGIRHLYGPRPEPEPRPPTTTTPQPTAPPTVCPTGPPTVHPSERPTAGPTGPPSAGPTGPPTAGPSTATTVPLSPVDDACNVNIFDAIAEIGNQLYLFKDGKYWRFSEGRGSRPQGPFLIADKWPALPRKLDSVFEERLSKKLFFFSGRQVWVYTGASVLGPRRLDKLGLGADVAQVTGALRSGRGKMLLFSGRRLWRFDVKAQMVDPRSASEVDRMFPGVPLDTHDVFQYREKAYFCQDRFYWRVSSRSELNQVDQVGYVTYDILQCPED

% cleavage MMP-7 t = 15 min ([1]; t = 15 min (Table 9)) [%]	% cleavage MMP-7 t = 60 min ([1]; t = 60 min (Table 9)) [%]	% cleavage MMP-7 t = 120 min ([1]; t = 120 min (Table 9)) [%]	% cleavage MMP-9 t = 15 min ([2]; t = 15 min (Table 9)) [%]	% cleavage MMP-9 t = 60 min ([2]; t = 60 min (Table 9)) [%]	% cleavage MMP-9 t = 120 min ([2]; t = 120 min (Table 9)) [%]	% cleavage MMP-2 t = 15 min ([3]; t = 15 min (Table 9)) [%]	% cleavage MMP-2 t = 15 min [3, 6] [%]	% cleavage MMP-2 t = 60 min ([3]; t = 60 min (Table 9)) [%]	% cleavage MMP-2 t = 60 min [3, 7] [%]	% cleavage MMP-2 t = 120 min ([3]; t = 120 min (Table 9)) [%]	% cleavage MMP-2 t = 120 min [3, 8] [%]	% cleavage uPA t = 15 min [4, 9] [%]	% cleavage uPA t = 60 min [4, 9] [%]	% cleavage uPA t = 120 min [4, 9] [%]	% cleavage Matriptase t = 15 min [5, 10] [%]	% cleavage Matriptase t = 60 min [5, 10] [%]	% cleavage Matriptase t = 120 min [5, 10] [%]	% cleavage MMP-7 t = 15 min [1, 11] [%]	% cleavage MMP-7 t = 60 min [1, 12] [%]	Substance	other results
0	0	0	1	3	4	2	2	5	5	8	8	1	5	12	3	11	20			SGRVANPLGGSG ([2Abz]SGRVANPLGGSG[Tyr(3-NO2)]-NH2) [LNK053]	
0	0	0	49	100	100	78	78	100	100	100	100	33	100	100	0	0	0			SGRVANYFGKL ([2Abz]SGRVANYFGKL[Tyr(3-NO2)]-NH2) [LNK054]	
77	100	100	23	74	92	19		64		88								77	100	SGRVAPQPLVD (not fully specified (N-terminus, C-terminus)) [LNK046]	% cleavage MMP-7 t = 120 min [1, 13]: 100%; % cleavage MMP-9 t = 15 min [2, 11]: 23%; % cleavage MMP-9 t = 60 min [2, 12]: 74%; % cleavage MMP-9 t = 120 min [2, 13]: 92%; % cleavage MMP-2 t = 60 min [3, 12]: 64%; % cleavage MMP-2 t = 120 min [3, 13]: 88%; % vcleavage uPA t = 15 min ([4]; standard conditions (Table 8)): 1%; % cleavage uPA t = 60 min ([4]; standard conditions (Table 8)): 4%; % cleavage uPA t = 120 min ([4]; standard conditions (Table 8)): 7%; % cleavage Matriptase t = 15 min ([5]; standard conditions (Table 8)): 19%; % cleavage Matriptase t = 60 min ([5]; standard conditions (Table 8)): 65%; % cleavage Matriptase t = 120 min ([5]; standard conditions (Table 8)): 91%
61	100	100	32	93	100	34		78		91								61	100	SGRVAPY-Nle-LQG ([2Abz]SGRVAPY[Nle]LQG[Tyr(3-NO2)]-NH2) [LNK043]	% cleavage MMP-7 t = 120 min [1, 13]: 100%; % cleavage MMP-9 t = 15 min [2, 11]: 32%; % cleavage MMP-9 t = 60 min [2, 12]: 93%; % cleavage MMP-9 t = 120 min [2, 13]: 100%; % cleavage MMP-2 t = 60 min [3, 12]: 78%; % cleavage MMP-2 t = 120 min [3, 13]: 91%; % vcleavage uPA t = 15 min ([4]; standard conditions (Table 8)): 0%; % cleavage uPA t = 60 min ([4]; standard conditions (Table 8)): 0%; % cleavage uPA t = 120 min ([4]; standard conditions (Table 8)): 0%; % cleavage Matriptase t = 15 min ([5]; standard conditions (Table 8)): 24%; % cleavage Matriptase t = 60 min ([5]; standard conditions (Table 8)): 73%; % cleavage Matriptase t = 120 min ([5]; standard conditions (Table 8)): 100%
